Target: MUS81-EME1 complex (human) (UniProt Q96NY9)
Sequence of UniProt Q96NY9 (Q96NY9 whole entry, chain 1 of 2): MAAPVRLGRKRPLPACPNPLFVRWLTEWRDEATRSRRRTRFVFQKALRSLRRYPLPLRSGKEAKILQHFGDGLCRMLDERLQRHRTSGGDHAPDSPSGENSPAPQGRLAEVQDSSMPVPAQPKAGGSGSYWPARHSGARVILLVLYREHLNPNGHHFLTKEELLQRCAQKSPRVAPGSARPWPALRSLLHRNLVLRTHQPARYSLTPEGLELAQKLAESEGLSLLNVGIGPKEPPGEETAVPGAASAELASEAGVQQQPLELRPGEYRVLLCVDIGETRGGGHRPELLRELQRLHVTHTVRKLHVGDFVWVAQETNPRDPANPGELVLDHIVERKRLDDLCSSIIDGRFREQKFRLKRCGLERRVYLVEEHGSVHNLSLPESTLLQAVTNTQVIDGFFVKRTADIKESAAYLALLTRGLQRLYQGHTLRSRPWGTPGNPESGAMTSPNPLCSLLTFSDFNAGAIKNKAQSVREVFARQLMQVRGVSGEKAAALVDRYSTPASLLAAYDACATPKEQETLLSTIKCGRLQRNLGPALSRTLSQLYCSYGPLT
Sequence of UniProt Q96NY9 (Q96AY2 whole entry, chain 2 of 2, further chain): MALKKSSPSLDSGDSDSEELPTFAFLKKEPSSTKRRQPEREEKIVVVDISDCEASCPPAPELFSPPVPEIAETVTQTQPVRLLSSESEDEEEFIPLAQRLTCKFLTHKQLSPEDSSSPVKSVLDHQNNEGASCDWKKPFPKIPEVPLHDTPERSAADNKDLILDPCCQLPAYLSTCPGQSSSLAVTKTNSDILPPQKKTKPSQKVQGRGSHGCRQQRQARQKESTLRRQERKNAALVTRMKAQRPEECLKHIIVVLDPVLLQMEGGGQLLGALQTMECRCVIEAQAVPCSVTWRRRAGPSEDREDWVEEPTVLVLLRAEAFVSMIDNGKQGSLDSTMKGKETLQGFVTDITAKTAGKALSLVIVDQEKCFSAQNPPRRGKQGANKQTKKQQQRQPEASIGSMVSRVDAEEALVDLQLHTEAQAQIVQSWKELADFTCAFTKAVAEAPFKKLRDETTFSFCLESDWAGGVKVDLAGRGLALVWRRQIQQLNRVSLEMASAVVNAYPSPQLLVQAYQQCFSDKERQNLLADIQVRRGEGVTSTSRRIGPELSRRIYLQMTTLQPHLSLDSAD

B1: Fanconi anemia complementation group A protein (FANCA) (natural protein)
chain: MSDSWVPNSASGQDPGGRRRAWAELLAGRVKREKYNPERAQKLKESAVRLLRSHQDLNALLLEVEGPLCKKLSLSKVIDCDSSEAYANHSSSFIGSALQDQASRLGVPVGILSAGMVASSVGQICTAPAETSHPVLLTVEQRKKLSSLLEFAQYLLAHSMFSRLSFCQELWKIQSSLLLEAVWHLHVQGIVSLQELLESHPDMHAVGSWLFRNLCCLCEQMEASCQHADVARAMLSDFVQMFVLRGFQKNSDLRRTVEPEKMPQVTVDVLQRMLIFALDALAAGVQEESSTHKIVRCWFGVFSGHTLGSVISTDPLKRFFSHTLTQILTHSPVLKASDAVQMQREWSFARTHPLLTSLYRRLFVMLSAEELVGHLQEVLETQEVHWQRVLSFVSALVVCFPEAQQLLEDWVARLMAQAFESCQLDSMVTAFLVVRQAALEGPSAFLSYADWFKASFGSTRGYHGCSKKALVFLFTFLSELVPFESPRYLQVHILHPPLVPGKYRSLLTDYISLAKTRLADLKVSIENMGLYEDLSSAGDITEPHSQALQDVEKAIMVFEHTGNIPVTVMEASIFRRPYYVSHFLPALLTPRVLPKVPDSRVAFIESLKRADKIPPSLYSTYCQACSAAEEKPEDAALGVRAEPNSAEEPLGQLTAALGELRASMTDPSQRDVISAQVAVISERLRAVLGHNEDDSSVEISKIQLSINTPRLEPREHMAVDLLLTSFCQNLMAASSVAPPERQGPWAALFVRTMCGRVLPAVLTRLCQLLRHQGPSLSAPHVLGLAALAVHLGESRSALPEVDVGPPAPGAGLPVPALFDSLLTCRTRDSLFFCLKFCTAAISYSLCKFSSQSRDTLCSCLSPGLIKKFQFLMFRLFSEARQPLSEEDVASLSWRPLHLPSADWQRAALSLWTHRTFREVLKEEDVHLTYQDWLHLELEIQPEADALSDTERQDFHQWAIHEHFLPESSASGGCDGDLQAACTILVNALMDFHQSSRSYDHSENSDLVFGGRTGNEDIISRLQEMVADLELQQDLIVPLGHTPSQEHFLFEIFRRRLQALTSGWSVAASLQRQRELLMYKRILLRLPSSVLCGSSFQAEQPITARCEQFFHLVNSEMRNFCSHGGALTQDITAHFFRGLLNACLRSRDPSLMVDFILAKCQTKCPLILTSALVWWPSLEPVLLCRWRRHCQSPLPRELQKLQEGRQFASDFLSPEAASPAPNPDWLSAAALHFAIQQVREENIRKQLKKLDCEREELLVFLFFFSLMGLLSSHLTSNSTTDLPKAFHVCAAILECLEKRKISWLALFQLTESDLRLGRLLLRVAPDQHTRLLPFAFYSLLSYFHEDAAIREEAFLHVAVDMYLKLVQLFVAGDTSTVSPPAGRSLELKGQGNPVELITKARLFLLQLIPRCPKKSFSHVAELLADRGDCDPEVSAALQSRQQAAPDADLSQEPHLF
Binder B1 has an MUS81-EME1-mediated incision of psoralen ICL-damaged 3' ssDNA branch substrate (1.5 nM MUS81-EME1; FANCA 0-20 nM), fold stimulation of 14 fold and an MUS81-EME1-mediated incision of undamaged DNA (1.5 nM MUS81-EME1; FANCA 0-20 nM): enhanced up to 5 nM FANCA (Phase I), inhibited from 10 to 20 nM and abrogated at 20 nM FANCA (Phase II) of 3 fold.

Reference: publication PMC3919598
